Data published in paper PMC12097070 (2025).

Molecular target: human glucose‐regulated protein 78 (hGRP78), full-length (human, UniProt P11021 19-654)
Experiment: SPR

human glucose‐regulated protein 78 (hGRP78), full-length, sequence (P11021 19-654): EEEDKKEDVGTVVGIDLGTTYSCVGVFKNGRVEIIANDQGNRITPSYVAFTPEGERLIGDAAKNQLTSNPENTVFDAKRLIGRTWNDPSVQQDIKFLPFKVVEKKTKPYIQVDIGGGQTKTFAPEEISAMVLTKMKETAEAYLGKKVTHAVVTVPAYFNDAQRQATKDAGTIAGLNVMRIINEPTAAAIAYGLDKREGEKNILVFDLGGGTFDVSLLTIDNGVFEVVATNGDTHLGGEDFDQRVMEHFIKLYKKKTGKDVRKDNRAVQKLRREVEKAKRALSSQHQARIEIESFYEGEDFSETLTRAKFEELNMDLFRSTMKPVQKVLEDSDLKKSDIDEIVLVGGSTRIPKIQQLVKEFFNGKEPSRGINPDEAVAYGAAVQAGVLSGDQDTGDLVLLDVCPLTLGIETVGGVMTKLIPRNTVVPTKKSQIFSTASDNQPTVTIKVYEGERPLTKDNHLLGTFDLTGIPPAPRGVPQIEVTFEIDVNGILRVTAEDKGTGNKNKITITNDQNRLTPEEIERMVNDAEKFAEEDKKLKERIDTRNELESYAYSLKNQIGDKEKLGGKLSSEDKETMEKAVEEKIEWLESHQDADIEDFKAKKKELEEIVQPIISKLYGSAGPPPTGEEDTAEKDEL

B1: Nb NBD1 (VHH)
VHH: AVQLVESGGGSVQAGGSLTLSCAASINTGNPALVGWYRQAPGKQREMVAMISISGNTNYAPSVKGRFTISRDNANKTIFLQMNSLTPEDTAVYYCKKLPFGSWGQGTQVTVSS
B1 gave a koff of 0.000575 s⁻¹.
